The results in this text go back to the supplement of paper PMC9732359.

The nature of the series: protein stability index of a GFP-peptide fusion (yeast GPS) (PSI 1-4); higher = more stable; sorted into four equal gates, so the index is relative within each strain. In a few lines: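 Plasmids isolated from each sorting gate were PCR-amplified and Illumina-sequenced, and barcodes assigned the reads to strains. The gates, four of equal size, were set by GFP/Cherry fluorescence ratio on mid-log cultures in leucine-free medium. These cultures were yeast carrying a pooled library of tiled 17-residue yeast protein peptides fused downstream of GFP on a plasmid that also expresses Cherry. The protein stability index is the sum of every gate's read frequency times its gate number.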

± gives the uncertainty stated by the source.

On to LKNMLYVLSTAVEFESV [BRR2], for which the protein stability index reads like this: (doa10∆) 1.77 ± 0.038; (pdr5∆) 1.58 ± 0.037; (san1∆) 1.88 ± 0.081; (ubr1∆) 1.42 ± 0.032.
Taken in the same sequence, the figures for KSKKSWLNRLNNWLFGW [YMR153W/NUP53] were 2.81 ± 0.054, 2.66 ± 0.046, 2.51 ± 0.053 and 2.94 ± 0.041.
On to YLKVSEEEIKKFDSRIR [PRP8], for which the protein stability index reads like this: (doa10∆) 2.9 ± 0.072; (pdr5∆) 3.08 ± 0.083; (san1∆) 2.78 ± 0.066; (ubr1∆) 3.15 ± 0.061.
TSIANAFRRIMISEVPS [RPC40]: the protein stability index is, setting by setting: (doa10∆) 1.71 ± 0.043; (pdr5∆) 1.83 ± 0.046; (san1∆) 2.45 ± 0.061; (ubr1∆) 1.88 ± 0.042.
Take NVGDNNSTASSSNISPE [ARP7]: the protein stability index reads like this: (doa10∆) 2.83 ± 0.089; (pdr5∆) 3.11 ± 0.062; (san1∆) 3.04 ± 0.055; (ubr1∆) 3.08 ± 0.045.
The like results for NASLTIEDEDEPFNAGI [SMC1] were, in that order, 3.29 ± 0.13, 3.15 ± 0.12, 3.39 ± 0.083 and 3.23 ± 0.085.
RKKKFVLDVDPKYAKQK [ISW2]: the protein stability index reads like this: (doa10∆) 2.91 ± 0.077; (pdr5∆) 2.45 ± 0.066; (san1∆) 2.25 ± 0.12; (ubr1∆) 2.66 ± 0.076.
On to NFLSKIRNINVQDALLT [SNF2], for which the protein stability index by setting is: (doa10∆) 1.63 ± 0.047; (pdr5∆) 1.99 ± 0.054; (san1∆) 1.77 ± 0.083; (ubr1∆) 1.54 ± 0.032.
Consider NVRALYMRLWEINETEF [RMP1], for which, for the setting “doa10∆”, the protein stability index is 3 ± 0.24.
For the sequence NSDDILSLHENYPQDEI [POP1], the protein stability index is 2.94 ± 0.06 (doa10∆), 3.12 ± 0.073 (pdr5∆), 2.82 ± 0.084 (san1∆) and 2.92 ± 0.05 (ubr1∆).
Turning to MMTRRVVMAMYNPKMID [RET1], the protein stability index is, setting by setting: (doa10∆) 3.46 ± 0.15; (pdr5∆) 3.37 ± 0.19; (san1∆) 2.62 ± 0.29; (ubr1∆) 3.05 ± 0.094.
AGADRLQQGMRGAWGKP [RPL10]: the protein stability index is, setting by setting: (doa10∆) 3.41 ± 0.12; (pdr5∆) 3.25 ± 0.13; (san1∆) 2.95 ± 0.12; (ubr1∆) 3.31 ± 0.086.
The like results for QQLLPAPQLFPYGSFHQ [DSN1] were, in that order, 2.72 ± 0.09, 3.01 ± 0.1, 2.72 ± 0.072 and 3.04 ± 0.08.
The like results for DLKEGLQDLSRYSRQFI [GRR1] were, in that order, 3.07 ± 0.062, 2.24 ± 0.058, 3.02 ± 0.038 and 3.29 ± 0.035.
The like results for AIALAVRLGEEDMIRSV [RPN1] were, in that order, 3.42 ± 0.14, 3.4 ± 0.13, 3.39 ± 0.1 and 3.39 ± 0.14.
Turning to NRQVMHKMGVERSSKRL [SIR3], the protein stability index runs as follows: (doa10∆) 3.23 ± 0.17; (pdr5∆) 3.49 ± 0.14; (san1∆) 3.46 ± 0.14; (ubr1∆) 3.34 ± 0.19.
In the case of KAMSSRAGVSQVLNRYT [RPB2], the protein stability index reads like this: (doa10∆) 3.17 ± 0.11; (pdr5∆) 3.21 ± 0.096; (san1∆) 2.97 ± 0.073; (ubr1∆) 3.29 ± 0.053.
Sequence EDMIRSVFDATSDPVMH [RPN1] returned a protein stability index (san1∆) of 3.15 ± 0.23.
Turning to GSIPSLTTQFVTDKYTA [YDL088C/ASM4], the protein stability index was found to be 2.54 ± 0.08 (doa10∆), 2.54 ± 0.066 (pdr5∆), 2.46 ± 0.087 (san1∆) and 2.58 ± 0.079 (ubr1∆).
Consider IMNLITNEPCGAQFSRS [RPN4], for which the protein stability index runs as follows: (pdr5∆) 3.1 ± 0.3; (ubr1∆) 2.96 ± 0.17.
Consider SASSLVITALKEPPRDR [RPL12A], for which the protein stability index runs as follows: (doa10∆) 2.83 ± 0.062; (pdr5∆) 2.97 ± 0.074; (san1∆) 2.66 ± 0.071; (ubr1∆) 2.22 ± 0.052.
Regarding VAQGIMNAGGRNVTIQL [RPN2], where the note is “pdr5∆”, the protein stability index was 2.61 ± 0.21.
As for IHKRYIDLEAPVQIVKR [RPS20], the protein stability index (doa10∆) was found to be 2.5 ± 0.13, the protein stability index (pdr5∆) was found to be 2.78 ± 0.15, the protein stability index (san1∆) is 2.51 ± 0.14 and the protein stability index (ubr1∆) is 2.96 ± 0.12.
Consider DLKSKGLIPADATFAGH [FAS1], for which the protein stability index reads like this: (doa10∆) 3.04 ± 0.092; (pdr5∆) 3.01 ± 0.074; (san1∆) 3.07 ± 0.12; (ubr1∆) 2.98 ± 0.065.
In turn, AGNLITTPEINNFIVER [SRP68] registered a protein stability index (doa10∆) of 2.79 ± 0.067, a protein stability index (pdr5∆) of 3.07 ± 0.061, a protein stability index (san1∆) of 3.18 ± 0.061 and a protein stability index (ubr1∆) of 2.82 ± 0.049.
Taken in the same sequence, the figures for HARTAAVTHNLYYDEDI [PUP2] were 3.21 ± 0.16, 3.22 ± 0.17, 2.86 ± 0.23 and 2.63 ± 0.1.
The like results for LRDTFIELDQVLNMLYW [RPO21] were, in that order, 2.19 ± 0.1, 2.51 ± 0.058, 2.4 ± 0.07 and 2.27 ± 0.06.
Sequence LSTRAGGLGLNLQTADT [SNF2] came in with a protein stability index (doa10∆) of 2.75 ± 0.084, a protein stability index (pdr5∆) of 2.7 ± 0.068, a protein stability index (san1∆) of 2.7 ± 0.076 and a protein stability index (ubr1∆) of 3.2 ± 0.058.
RDCIDISIFSTPGSVSL [PRP8]: the protein stability index is 2.79 ± 0.11 (doa10∆), 2.88 ± 0.11 (pdr5∆), 2.45 ± 0.1 (san1∆) and 3.02 ± 0.12 (ubr1∆).
As for PTPVVTISEKEQDILDL [SSN2], the protein stability index came out at 2.76 ± 0.1 (doa10∆), 2.02 ± 0.095 (pdr5∆), 2.61 ± 0.12 (san1∆) and 2.73 ± 0.099 (ubr1∆).
As for EGEAKQKRNAHGYFLQD [ITC1], the protein stability index runs as follows: (doa10∆) 3.18 ± 0.065; (pdr5∆) 3.4 ± 0.072; (san1∆) 3.35 ± 0.035; (ubr1∆) 3.32 ± 0.043.
The sequence WPKTRGVAMNPVDHPHG [RPL2A] gave a protein stability index (doa10∆) of 2.37 ± 0.078, a protein stability index (pdr5∆) of 2.25 ± 0.057, a protein stability index (san1∆) of 2.74 ± 0.058 and a protein stability index (ubr1∆) of 2.55 ± 0.066.
Consider NGGEDTSVENEGPVANL [REC8], for which the protein stability index (doa10∆) was 3.37 ± 0.089, the protein stability index (pdr5∆) stood at 3.45 ± 0.094, the protein stability index (san1∆) was found to be 3.06 ± 0.11 and the protein stability index (ubr1∆) worked out at 3.16 ± 0.058.
For LSGKFSTIPTRENGKGG [ROX3], the protein stability index amounted to 3.28 ± 0.23 (doa10∆), 3.22 ± 0.11 (pdr5∆), 3.01 ± 0.063 (san1∆) and 3.1 ± 0.23 (ubr1∆).
Regarding FGNTSTSSAPAQNQGMF [YGL172W/NUP49], the protein stability index is, setting by setting: (doa10∆) 3.3 ± 0.15; (pdr5∆) 3.4 ± 0.24.
Turning to STVSGELNDNPAWFNNP [YMR153W/NUP53], the protein stability index is, setting by setting: (doa10∆) 3.36 ± 0.086; (pdr5∆) 3.47 ± 0.056; (san1∆) 3.29 ± 0.044; (ubr1∆) 3.35 ± 0.049.
For TSLFHKFILSGFIFTSM [RRI2], the protein stability index is, setting by setting: (doa10∆) 2.09 ± 0.046; (pdr5∆) 1.66 ± 0.03; (san1∆) 1.94 ± 0.07; (ubr1∆) 1.52 ± 0.044.
Take ILKLLNGFMESAIVNED [SOH1]: the protein stability index runs as follows: (pdr5∆) 3.27 ± 0.18; (san1∆) 3.41 ± 0.17; (ubr1∆) 3.57 ± 0.22.
Sequence SPDQMRNLQMGLRNQNM [GRR1] had a protein stability index (doa10∆) of 3.23 ± 0.12, a protein stability index (pdr5∆) of 3.52 ± 0.16, a protein stability index (san1∆) of 3.22 ± 0.088 and a protein stability index (ubr1∆) of 2.71 ± 0.082.
